# Data as given in patent US5652133A, “Cloning and expression of the human macrophage inflammatory protein-1.alpha . α) /rantes receptor” (The United States of America as represented by the …, priority 1993, dated 1997).
# B1: C5a: C5a, ligand tested in the oocyte calcium efflux screen (protein, UniProt P01031 678-751, looked up)
# C5a anaphylatoxin: TLQKKIEEIAAKYKHSVVKKCCYDGACVNNDETCEQRAARISLGPRCIKAFTECCVVASQLRANISHKDMQLGR
# modifications: C5a anaphylatoxin
# notes: C5a, ligand tested in the oocyte calcium efflux screen
# B2: NAP-2: recombinant human neutrophil activating peptide-2 (Bachem Bioscience) (protein, UniProt P02775 59-128, looked up)
# Neutrophil-activating peptide …: AELRCMCIKTTSGIHPKNIQSLEVIGKGTHCNQVEVIATLKDGRKICLDPDAPRIKKIVQKKLAGDESAD
# modifications: Neutrophil-activating peptide 2
# B3: MIP-1β: recombinant human MIP-1β, diluted supernatant of Sf9 insect cells (clone pAT744) (protein, UniProt P13236 24-92, looked up)
# C-C motif chemokine 4: APMGSDPPTACCFSYTARKLPRNFVVDYYETSSLCSQPAVVFQTKRSKQVCADPSESWVQEYVYDLELN
# Tests used:
# [1] = target: T1, MIP-1α/RANTES receptor (Homo sapiens, UniProt P32246); assay: Calcium efflux assay in Xenopus oocytes injected with MIP-1α/RANTES receptor cRNA; format: cell-based; details: for responsiveness of cRNA-injected oocytes to ligand (calcium efflux): oocytes injected with 10 ng receptor cRNA, IL-8, GRO-α, NAP-2 at 500 nM, MIP-1α/MIP-1β Sf9 supernatant 1:5, panel C ligands at 250 nM
# T1 construct: I.D. No. 1; expressed in transfected cells; host or cells: Xenopus laevis oocytes microinjected with receptor cRNA
# T1 sequence (P32246 1-355): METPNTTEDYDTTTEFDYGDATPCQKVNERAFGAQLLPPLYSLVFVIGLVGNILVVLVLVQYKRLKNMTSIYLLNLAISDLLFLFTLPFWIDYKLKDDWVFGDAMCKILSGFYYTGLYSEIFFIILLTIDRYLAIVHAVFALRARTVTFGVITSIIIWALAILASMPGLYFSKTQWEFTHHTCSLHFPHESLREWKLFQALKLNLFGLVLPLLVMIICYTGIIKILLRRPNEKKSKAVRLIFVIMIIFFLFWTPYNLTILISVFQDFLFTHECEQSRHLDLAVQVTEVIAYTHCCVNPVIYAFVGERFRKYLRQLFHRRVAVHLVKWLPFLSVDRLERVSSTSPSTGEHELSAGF
# Protocol: (§1) The materials and methods used for the calcium efflux assay were as described in Murphy, et al., J. Immunol. 145:2227-2234 (1990). Adult female laboratory bred Xenopus laevis (Nasco, Fort Atkinson, Wis.) were maintained at 19° C. to 22° C. in a light-dark cycle of 12 h per phase. The frogs were anesthetized and ovarian lobes were resected and defolliculated in OR2 solution (82.5 mM NaCl, 1 mM MgCl2, 2.4 mM KCl, 5 mM HEPES, pH 7.5) containing 2 mg/ml collagenase for 2 h on a rotary shaker. Stage V-VI oocytes were transferred to ND96 solution (96 mM NaCl, 2 mM KCl, 1.8 mM CaCl2, 1 mM MgCl2, 2.4 mM sodium pyruvate, penicillin 100 U/ml, streptomycin 100 μg/ml, 5 mM HEPES, pH 7.4 to 7.5).
# (§2) After 1-2 days, oocytes were microinjected with RNA samples in a total volume of 50 nl per oocyte and were then incubated in ND96 solution at 20° C. to 23° C. for 3 to 5 days. Oocytes were then incubated in 500 μl of OR2 medium containing ^45 Ca^2+ [50 μCi/ml (ICN Biomedicals, Costa Mesa, Calif.)] for 3 hours at 20° C. After ten washes with ND96 medium, individual oocytes were stimulated with ligand in wells of a 96-well tissue culture plate containing 100 μl of ND96 medium. Three 100 μl samples of the incubation medium were collected and analyzed by liquid scintillation counting: a) the final 100 μl wash (20 min) before application of ligand; b) fluid containing the stimulus, removed after a 20 min incubation with the oocyte; and c) the oocyte solubilized in SDS (1%) in medium 20 min after stimulation. Data are presented as the mean±standard error of the mean (SEM) of the percent of loaded ^45 Ca^2+ that was released by individual oocytes in response to the stimulus, or [(b-a).div.(b+c)]×100.
# Ligands were all human recombinant material obtained from the following sources: MIP-1α (R and D Systems, Minneapolis, Minn.); IL-8, RANTES, and MCAF (Genzyme, Cambridge, Mass.); NAP-2 (Bachem Bioscience, Philadelphia, Pa.); GRO-α (a gift from M. P. Beckmann, S. Lyman and D. Cerretti). MIP-1α and MIP-1β used in a ligand screen was a gift of U. Siebenlist (NIAID, Bethesda, Md.) and were used as a diluted supernatant of Sf9 insect cells expressing immunoreactive recombinant human MIP-1α (from clone pAT464) or MIP-1β (from clone pAT744) that was prepared as described in Zipfel et al. J. Immunol. 142:1582-1590 (1989) and Zipfel et al. Lymph. Cyto. Res. 11:141-148 (1992). All proteins were diluted from aqueous stock solutions or culture supernatants into ND96 oocyte media (96 mM NaCl, […], pH 7.45) containing 0.1% bovine serum albumin.
# Five days after injection with 10 ng of either MIP-1α/RANTES receptor cRNA (closed bars) or IL-8 receptor B cRNA (open bars), oocytes were stimulated with recombinant human IL-8, GRO-α or NAP-2 at 500 nM, or a 1:5 dilution of an Sf9 supernatant containing recombinant human MIP-1α or MIP-1β. […] Oocytes injected with 50 ng HL-60 RNA (closed circle) or 10 ng of MIP-1α/RANTES receptor cRNA (open circle) were stimulated with the indicated concentration of recombinant human MIP-1α. […] Oocytes were injected with either HL-60 RNA (open bars) or MIP-1α/RANTES receptor cRNA (closed bars) and stimulated with the indicated ligand at 250 nM. In panels A-C, the data derive from 5-8 replicate determinations per point.
# [2] = system: IL-8 receptor B; assay: Radioligand binding of 125I-MIP-1α to oocytes expressing IL-8 receptor B; design: species or system human; details: single oocytes, 30 min on ice
# [3] = target: T1, MIP-1α/RANTES receptor; assay: Radioligand binding of 125I-MIP-1α to oocytes injected with MIP-1α/RANTES receptor cRNA
# Protocol: Carrier free recombinant human MIP-1α 10 μg (Genzyme, Cambridge, Mass.) was labeled using 5 mCi Na^125 I (Amersham, Arlington Heights, Ill.) in 100 μl 0.2M sodium phosphate, pH 7.2 and 50 μl reconstituted Enzymobeads (BioRad, Richmond, AC). The reaction was started using 25 μl 1% β-D-glucose and allowed to continue for 20 minutes. Labeled sample was separated from the free iodine using a NAP-5 column (Pharmacia LKB, Piscataway, N.J.) which had been previously rinsed with 1% bovine serum albumin in 0.2M sodium phosphate, pH 7.2. Labeled material was collected from the column and analyzed on a 14% acrylamide gel. Single oocytes were incubated with ^125 I-MIP-1α for 30 min on ice in 10 μl of binding buffer (Hanks' balanced salt solution with 25 mM HEPES, 1% bovine serum albumin, pH 7.4). Unbound ligand was removed by centrifugation of the oocyte through 300 μl of F50 silicone fluid (General Electric, Waterford, N.Y.). The tubes were quickly frozen and gamma emissions from the amputated tips were counted.
# Binding of ^125 I-labeled MIP-1α to oocytes injected with MIP-1α/RANTES receptor cRNA. (A) Total (closed circles) and non-specific binding (open circles) was determined by incubating oocytes injected with MIP-1α/RANTES receptor cRNA with the indicated concentration of ^125 I-labeled MIP-1α in the absence or presence of a 100 fold molar excess of unlabeled MIP-1α, respectively. […]
# [4] = system: IL-8 receptor B; assay: Calcium efflux assay in Xenopus oocytes injected with IL-8 receptor B cRNA; format: cell-based, human; details: oocytes injected with 10 ng IL-8 receptor B cRNA; 1:5 dilution of Sf9 supernatant
# Protocol: as §1
# as §2, with “After ten washes with ND96 medium, individual oocytes were stimulated with ligand in wells of a 96-well tissue culture plate containing 100 μl of ND96 medium.” left out, “Data are presented as the mean±standard error of the mean (SEM) of the percent of loaded ^45 Ca^2+ that was released by individual oocytes in response to the stimulus, or [(b-a).div.(b+c)]×100.” left out
Molecule,responsiveness of cRNA-injected oocytes to ligand (calcium efflux) [1],further results
"O=c1ccn([C@@H]2O[C@H](COP(=O)(O)OP(=O)(O)OP(=O)(O)O)[C@@H](O)[C@H]2O)c(=O)[nH]1 [UTP, reference compound]",inactive,–
"GROα: recombinant human GROα/melanoma growth stimulatory activity, α chemokine",not,–
"NCCc1c[nH]cn1 [histamine, reference compound]",inactive,–
"CCCCCCCCCCCCCCCCOCC(COP(=O)([O-])OCC[N+](C)(C)C)OC(C)=O (stereo not shown) [platelet activating factor, reference compound]",inactive,–
"MCP-1: human recombinant Monocyte Chemoattractant Protein-1 (MCAF, Genzyme)",not,–
"CCCCC[C@H](O)/C=C/[C@H]1[C@H](O)CC(=O)[C@@H]1C/C=C\CCCC(=O)O [Prostaglandin E2, reference compound]",inactive,–
^125 I-MIP-1α: carrier free recombinant human MIP-1α (Genzyme) labeled with Na125I,–,specific binding to oocytes expressing IL-8 receptor B [2]: did not bind specifically; specific binding to oocytes expressing IL-8 receptor B ([2]; listed as 125 I-labeled MIP-1α): undetectable; threshold for detection of specific binding [3]: the same as that required for stimulation of calcium efflux
"CSCC[C@H](NC=O)C(=O)N[C@@H](CC(C)C)C(=O)N[C@@H](Cc1ccccc1)C(=O)O [f-met-leu-phe, reference compound]",inactive,–
"RANTES: recombinant human β chemokine, Regulated on Activation, Normal T Expressed and Secreted (Genzyme)",acquired responsiveness,"EC50 ([1]; calcium efflux, oocytes injected with receptor cRNA): ~50 nM"
"Nc1ncnc2c1ncn2[C@@H]1O[C@H](COP(=O)(O)OP(=O)(O)OP(=O)(O)O)[C@@H](O)[C@H]1O [ATP, reference compound]",inactive,–
"MIP-1α: recombinant human Macrophage Inflammatory Protein-1α, β chemokine (R and D Systems; or Sf9 supernatant)",acquired responsiveness,"activation of IL-8 receptor B (calcium efflux) [4]: Neither MIPα nor MIP-1β activated; concentration at which the first phase of the oocyte response appeared to saturate ([1]; calcium efflux, first phase): ~100 NM; concentration at which the second phase of the oocyte response did not reach a plateau ([1]; calcium efflux, second phase): > 5 µM"
"IL-8: recombinant human interleukin-8, α chemokine (Genzyme)",not,–
B1,inactive,–
B2,not,–
B3,not,activation of IL-8 receptor B (calcium efflux) [4]: Neither MIPα nor MIP-1β activated
